In patent US20110301095A1 (SANFORD BURNHAM MEDICAL RESEARCH INSTITUTE CALIFORNIA, published 2011):

Columns and labels:
[1] = target: Flag-HIF-1α (mouse HIF-1α in pCVM-Flag vector, expressed in transfected cells) (mouse) (UniProt Q61221); assay: cell-based or functional assay
[2] = target: T1, Flag-HIF-1α (mouse HIF-1α in pCVM-Flag vector, expressed in transfected cells) (mouse, UniProt Q61221-2 1-822, limits assumed); assay: co-expression in 293T cells, immunoprecipitation of Flag-HIF-1α with M2 beads, immunoblot
T1 construct: not shown: Flag tag
Protocol: Immunoprecipitation and Western blotting. For immunoprecipitation, cells were harvested in lysis buffer containing 50 mM Tris-HCl pH7.5, 150 mM NaCl, 0.5% NP40, 1 mM EDTA, 1 mM sodium orthovanadate, 1mM PMSF, 10 μg/ml aprotinin, 10 μg/ml leupeptine and 10 μg/ml pepstatin A. To immunoprecipitate Flag-tagged proteins, lysates were incubated with M2 beads (Sigma) overnight, the beads were washed 3 times, and precipitated proteins were eluted with 1 mg/ml of flag peptide. To immunoprecipitate endogenous proteins, cells lysates were incubated with 3 μg of primary antibodies overnight, and followed by incubation with Protein G beads for 1 h. After washing 3 times, the precipitated proteins were eluted with SDS loading buffer. To extract whole cell lysate, cells were harvested using RIPA buffer (50 mM Tris-HCl (pH7.5), 150 mM NaCl, 1% Triton X-100, 0.1% SDS, 0.1% Na-deoxycholate, 1 mM EDTA, 1 mM sodium orthovanadate, 1 mM PMSF, 10 μg/ml aprotinin, and 10 μg/ml leupeptine). Cell lysates were subjected to SDS-PAGE and proteins transferred onto a nitrocellulose membrane (Osmonics Inc.). The membrane was probed with primary antibodies followed by a secondary antibody conjugated with fluorescent dye and detected by the Odyssey detecting system ([…]).

Flag-HIF-1α (mouse HIF-1α in pCVM-Flag vector, expressed in transfected cells) (mouse), sequence (Q61221 other isoform, or with tags, fused parts or gaps limits assumed): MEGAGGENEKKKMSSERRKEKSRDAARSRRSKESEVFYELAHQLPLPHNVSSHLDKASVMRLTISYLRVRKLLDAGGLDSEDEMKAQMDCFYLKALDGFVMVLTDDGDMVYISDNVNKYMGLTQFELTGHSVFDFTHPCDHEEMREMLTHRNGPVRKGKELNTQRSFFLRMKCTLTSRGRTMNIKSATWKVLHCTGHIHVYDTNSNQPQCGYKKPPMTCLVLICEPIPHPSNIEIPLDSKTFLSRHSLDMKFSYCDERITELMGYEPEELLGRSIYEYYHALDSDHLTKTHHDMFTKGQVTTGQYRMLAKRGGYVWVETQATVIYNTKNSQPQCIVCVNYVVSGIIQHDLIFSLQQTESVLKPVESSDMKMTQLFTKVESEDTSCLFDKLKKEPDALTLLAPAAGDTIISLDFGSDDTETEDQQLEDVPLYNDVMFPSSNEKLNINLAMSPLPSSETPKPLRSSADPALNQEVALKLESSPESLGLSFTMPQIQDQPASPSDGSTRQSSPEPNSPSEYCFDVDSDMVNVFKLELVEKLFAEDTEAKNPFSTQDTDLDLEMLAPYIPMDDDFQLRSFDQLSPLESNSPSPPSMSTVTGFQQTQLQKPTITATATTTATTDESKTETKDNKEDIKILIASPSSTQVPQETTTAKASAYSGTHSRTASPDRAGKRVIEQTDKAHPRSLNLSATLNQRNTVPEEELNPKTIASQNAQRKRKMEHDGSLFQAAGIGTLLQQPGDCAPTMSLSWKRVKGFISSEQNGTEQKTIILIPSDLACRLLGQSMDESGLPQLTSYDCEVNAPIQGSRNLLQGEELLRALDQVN
T1 sequence (Q61221 other isoform, or with tags, fused parts or gaps limits assumed): as above

Q: Which HRE-Luc luciferase activity in TRAMP-C cells [1] does the source give for “exogenous FoxA2 expressed in TRAMP-C cells (luciferase assay of FIG. 3A)” here?
A: The HRE-Luc luciferase activity in TRAMP-C cells was 6 fold.

B1: HA-FoxA1 (HA-tagged rat FoxA1 in pcDNA3) (other, UniProt P23512 1-466, looked up)
chain: MLGTVKMEGHESNDWNSYYADTQEAYSSVPVSNMNSGLGSMNSMNTYMTMNTMTTSGNMTPASFNMSYANPGLGAGLSPGAVAGMPGGSAGAMNSMTAAGVTAMGAALSPGGMGSMGAQPAASMNGLGPYAAAMNPCMSPMAYAPSNLGRSRAGGGGDAKTFKRSYPHAKPPYSYISLITMAIQQAPSKMLTLSEIYQWIMDLFPYYRQNQQRWQNSIRHSLSFNACFVKVARSPDKPGKGSYWTLHPDSGNMFENGCYLRRQKRFKCEKQPGAGGGSGGGGSKGVPENRKDPSGPVNPSAESPIHRGVHGKASQLEGAPAPGPAASPQTLDHSGATATGGGSELKSPASSSAPPISSGPGGWICTPLSPTWLAPHESQLHLKGAPHYSFNHPFSINNLMSSSEQQHKLDFKAYEQALQYSPYGATLPASLPLGGASVATRSPIEPSALEPAYYQGVYSRPVLNTS
notes: not shown: HA tag
Q: Does B1 bind [2]?
A: Result: no binding
